Reference: patent US7026292B1, “Compositions and therapeutic methods using morphogenic proteins and stimulatory factors” (Stryker Corporation, priority 1995, dated 2006)
Where two headings read alike, the source gives them in different places.

Experiments:
[1] = Osteogenic activity of refolded E. coli-expressed constructs incorporated in a matrix; format: in vivo; details: refolded constructs from SDS gel slices incorporated in a matrix; histological examination
Description: Samples of the various purified constructs and various mixtures of pairs of the constructs refolded together were applied to SDS polyacrylamide gels, separated by electrophoresis, sliced, incorporated in a matrix as disclosed below, and tested for osteogenic activity.

[2] = cited from earlier work
[3] = test system: FRC (fetal rat calvarial) cells; experiment: Alkaline phosphatase (AP) activity assay in FRC cells; format: cell-based
Experimental: A preferred assay for testing potential MPSFs with OP-1 for osteogenic activity is the alkaline phosphatase (AP) enzymatic assay. AP is an osteoblast differentiation marker in primary osteoblastic FRC. (fetal rat calvarial) cells. The OP-1-stimulated AP activity is the result of increased steady-state AP mRNA levels as measured by Northern analysis. The procedure is generally as follows.
Primary osteoblast cell cultures were prepared from fetal rat calvaria using published procedures (M. A. Aronow et al., J. Cell Physiol., 143, pp. 213–221 (1990); T. K. McCarthy et al., J. Bone Miner. Res., 3, pp. 401–8 (1988)). Briefly, cells were harvested by sequential collagenase digestions of the calvarium and cells from digestions III to V were pooled. Fetal rat calvaria (FRC) cells were plated in complete medium (MEM, alpha; GIBCO/BRL, Grand Island, N.Y.) containing 10% fetal bovine serum, vitamin C (100 μg/ml), and antibiotics (100 U/ml penicillin, and […]). Cultures were incubated at 37° C. with 95% air/5% CO2 for several days to reach confluence. Cells were then subcultured for experimentations.
FRC cells were subcultured in 48-well plates (COSTAR, Cambridge, Mass.) in complete MEM medium with 10% fetal bovine serum until confluent in about 4 days. Confluent cells were rinsed with Hank's balanced salt solution (HBSS) and treated with serum-free α-MEM medium (with 0.1% BSA, 100 U/ml penicillin, and […]) containing the appropriate solvent vehicle (50% acetonitrile/0.1% trifluoroacetic acid for OP-1 treatment or 0.1N acetic acid for IGFI treatment) or recombinant human OP-1, or IGFI at the concentrations indicated. Solvent vehicle concentration in the culture medium never exceeded 0.1%. At the end of treatment, cells were lysed and total cellular alkaline phosphatase activity was measured (typically after 48 hours of treatment).
Total cellular alkaline phosphatase activity was determined using a commercial assay kit (Sigma, St. Louis, Mo.). Cell lysates were prepared by aspirating the medium from the 48-well plate, rinsing the cells with ice-cold PBS, and lysing the cells with 0.05% Triton X-100 and sonication for 60 sec. Alkaline phosphatase activity in the lysates was measured in 2-amino-2-methyl-1-propanol buffer (pH 10.3) with p-nitrophenyl phosphate as substrate at 37° C. Reactions were performed in 96-well plates for 1–2 h. Following color development, reactions were terminated with 0.5N NaOH. Absorbance of the reaction was measured at 405 nm using a Hewlett Packard Genenchem automatic plate reader. Total protein level in the lysates was measured according to Bradford (M. Bradford, Anal. Biochem., 72, pp. 248–54 (1976)) using bovine serum albumin as a standard. Alkaline phosphatase activity was expressed as nmol p-nitrophenol liberated per microgram of total cellular protein. […]
At least four experimental groups were tested: control cells treated with no OP-1 or MPSF; group I cells treated with increasing concentrations of MPSF alone; […]; and group III cells, […] concentrations of the MPSF.

[4] = 200 nM PTH + 200 ng/ml OP-1, 48 hours (FIG. 9)

B1: COP5: synthetic consensus osteogenic protein, Seq. ID No. 2 (protein)
chain: LYVDFSDVGWDDWIVAPPGYQAFYCHGECPFPLADHFNSTNHAVVQTLVNSVNSKIPKACCVPTELSAISMLYLDENEKVVLKYNQEMVVEGCGCR
Question: For B1, which Osteogenic activity [1] is on record?
Answer: induce osteogenesis

B2: COP7: synthetic consensus osteogenic protein, Seq. ID No. 3 (protein)
chain: LYVDFSDVGWNDWIVAPPGYHAFYCHGECPFPLADHLNSTNHAVVQTLVNSVNSKIPKACCVPTELSAISMLYLDENEKVVLKYNQEMVVEGCGCR
Question: For B2, which Osteogenic activity [1] is on record?
Answer: induce osteogenesis

B3: OP-1: osteogenic protein OP-1 (BMP-7), morphogenic protein of the BMP family; recombinant human OP-1 used in FRC assays (protein, UniProt P18075 293-431, looked up)
Bone morphogenetic protein 7: STGSKQRSQNRSKTPKNQEALRMANVAENSSSDQRQACKKHELYVSFRDLGWQDWIIAPEGYAAYYCEGECAFPLNSYMNATNHAIVQTLVHFINPETVPKPCCAPTQLNAISVLYFDDSSNVILKKYRNMVVRACGCH
Question: Which results are given for B3?
Answer: Osteogenic activity ([2]; deglycosylated protein, about 27 kD): has osteogenic activity; Osteogenic activity ([2]; native 30–35 kD protein in the reduced state): no detectable osteogenic activity; Stimulation of AP activity above vehicle-treated control culture ([3]; OP-1 500 ng/ml, 48 hours (FIG. 2)): 1.6 fold

B4: PTH: parathyroid hormone, purchased from Sigma (protein, UniProt P01270 32-115, looked up)
Parathyroid hormone: SVSEIQLMHNLGKHLNSMERVEWLRKKLQDVHNFVALGAPLAPRDAGSQRPRKKEDNVLVESHEKSLGEADKADVNVLTKAKSQ
modifications: Parathyroid hormone
notes: parathyroid hormone, purchased from Sigma
Question: For B4, which “Level of AP activity relative to cells treated with OP-1 alone” value [3, 4] is on record?
Answer: about two-fold

Question: What about the “Level of AP activity relative to control cells” value [3, 4] of the same molecule?
Answer: about five-fold

Question: What about the “MPSF function in concert with OP-1 (figure title)” value ([3]; AP activity in FRC cells, OP-1 200 ng/ml (FIGS. 5–10)) of the same molecule?
Answer: is a MPSF in concert with OP-1

Question: And the “Effect on OP-1-induced stimulation of AP activity” value ([3]; PTH 25 and 100 nM + 200 ng/ml OP-1, 48 hours (FIG. 9))?
Answer: no effect

Question: What about the “Stimulation of AP activity by PTH alone” value ([3]; PTH 25–200 nM alone, 48 hours (FIG. 9)) of the same molecule?
Answer: did not stimulate AP activity

Question: And the “Effect of PTH on AP activity induced by the OP-1/IGF-I combination” value ([3]; PTH at least about 50 nM + 200 ng/ml OP-1 + 25 ng/ml IGF-1)?
Answer: significantly increased
